The assay has as its target FcγRIIIa (V158 variant).
On to “Riabni (rituximab-arrx), lot 1141263, untreated (antibody)”, for which the ADCC Reporter Bioassay (WIL2-S target cells, Jurkat/NFAT-luc + FcγRIIIa V158 effector cells), EC50 of luciferase induction worked out at 13.6 ng/mL.

Regarding “Rituxan (rituximab), lot 3575428, untreated (antibody)”, the ADCC Reporter Bioassay (WIL2-S target cells, Jurkat/NFAT-luc + FcγRIIIa V158 effector cells), EC50 of luciferase induction is 9.3 ng/mL.

As to “Ruxience (rituximab-pvvr), lot GN4445, untreated (antibody)”, the ADCC Reporter Bioassay (WIL2-S target cells, Jurkat/NFAT-luc + FcγRIIIa V158 effector cells), EC50 of luciferase induction was found to be 6.06 ng/mL.

As to “Truxima (rituximab-abbs), lot 1B1011, untreated (antibody)”, the ADCC Reporter Bioassay (WIL2-S target cells, Jurkat/NFAT-luc + FcγRIIIa V158 effector cells), EC50 of luciferase induction stood at 9.09 ng/mL.

The record behind these values is paper PMC12889889.
